Source: US20240343803A1
pEC50, pIC50: −log10 of the molar value.

Columns and labels:
[1] = biological target: human PVRIG-mFc protein (Acro, PVG-H5253) (human) (UniProt Q6DKI7); experiment: HTRF competition, PVRIG-mFc with Bio-CD112-His as competitor; negative control
[2] = biological target: cynomolgus monkey PVRIG (Novoprotein, Cat NO. C09B) (cynomolgus monkey); experiment: ELISA, coated cynomolgus PVRIG; negative control
[3] = biological target: cynomolgus monkey TIGIT ECD-mFc (cynomolgus monkey); experiment: ELISA, cynomolgus TIGIT ECD-mFc captured by anti-mouse IgG; negative control
Sequence of cynomolgus monkey TIGIT ECD-mFc (cynomolgus monkey) (chain, as listed by the source limits assumed): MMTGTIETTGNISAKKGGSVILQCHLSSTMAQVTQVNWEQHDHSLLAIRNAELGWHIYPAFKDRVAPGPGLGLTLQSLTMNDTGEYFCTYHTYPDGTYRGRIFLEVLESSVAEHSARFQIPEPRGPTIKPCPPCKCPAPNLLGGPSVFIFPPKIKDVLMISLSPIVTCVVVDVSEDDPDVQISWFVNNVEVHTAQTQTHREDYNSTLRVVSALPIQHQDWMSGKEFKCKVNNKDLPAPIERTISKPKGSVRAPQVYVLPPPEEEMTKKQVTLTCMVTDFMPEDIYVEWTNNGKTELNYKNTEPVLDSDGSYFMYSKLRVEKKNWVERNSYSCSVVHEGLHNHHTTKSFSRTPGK

[4] = biological target: human PVRIG (AcroBiosystems, Cat NO. PVG-H52H4) (human) (UniProt Q6DKI7); experiment: ELISA, coated human PVRIG; negative control
Sequence of human PVRIG (AcroBiosystems, Cat NO. PVG-H52H4) (human) (Q6DKI7 41-171 limits assumed, form in doubt): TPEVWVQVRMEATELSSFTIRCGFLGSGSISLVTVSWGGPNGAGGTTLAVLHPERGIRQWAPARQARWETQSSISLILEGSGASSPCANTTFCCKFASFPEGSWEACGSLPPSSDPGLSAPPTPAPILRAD

Sequence of cynomolgus monkey PVRIG (Novoprotein, Cat NO. C09B) (cynomolgus monkey) (chain, as listed by the source): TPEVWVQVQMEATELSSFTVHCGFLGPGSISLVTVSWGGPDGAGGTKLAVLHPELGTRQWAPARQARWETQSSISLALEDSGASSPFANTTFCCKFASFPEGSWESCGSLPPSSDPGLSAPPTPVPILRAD
Sequence of human PVRIG-mFc protein (Acro, PVG-H5253) (human) (Q6DKI7 41-171 limits assumed, form in doubt): as the sequence (Q6DKI7 41-171 limits assumed, form in doubt) above

Substance: anti-Fluorescein-hIgG1 (antibody)
- pIC50 [1]: 10.52
- pEC50 [2]: 8.40
- pEC50 [3]: 9.16
- pEC50 [4]: 4.39
